Test results published in patent publication US20160152957A1, “Methods of Producing 6-Carbon Monomers From 8-Carbon Compounds” (INVISTA North America S.á.r.l., priority 2014, published 2016).

Key:
Format in all cases: biochemical
[1] = ω-transaminase enzyme activity assay, reverse direction (6-aminohexanoate to adipate semialdehyde); conditions: cell free extract, 10 mM 6-aminohexanoate, 10 mM pyruvate, pH 7.5, 25° C., 24 h, RP-HPLC, against the empty vector control
Procedure: (§1) A nucleotide sequence encoding a His-tag was added to the nucleic acid sequences from Chromobacterium violaceum, Pseudomonas aeruginosa, Pseudomonas syringae, Rhodobacter sphaeroides, and Vibrio fluvialis encoding the ω-transaminases of SEQ ID NOs: 7, 8, 9, 10 and 12, respectively (see FIG. 6) such that N-terminal HIS tagged ω-transaminases could be produced. Each of the resulting modified genes was cloned into a pET21a expression vector under control of the T7 promoter and each expression vector was transformed into a BL21[DE3] E. coli host. The resulting recombinant E. coli strains were cultivated at 37° C. in a 250 mL shake flask culture containing 50 mL LB media and antibiotic selection pressure, with shaking at 230 rpm. Each culture was induced overnight at 16° C. using 1 mM IPTG.
(§2) The pellet from each induced shake flask culture was harvested via centrifugation. Each pellet was resuspended and lysed via sonication. The cell debris was separated from the supernatant via centrifugation and the cell free extract was used immediately in enzyme activity assays.
Enzyme activity assays in the reverse direction (i.e., 6-aminohexanoate to adipate semialdehyde) were performed in a buffer composed of a final concentration of 50 mM HEPES buffer (pH=7.5), 10 mM 6-aminohexanoate, 10 mM pyruvate and 100 μM pyridoxyl 5′ phosphate. Each enzyme activity assay reaction was initiated by adding cell free extract of the ω-transaminase gene product or the empty vector control to the assay buffer containing the 6-aminohexanoate and incubated at 25° C. for 24 h, with shaking at 250 rpm. The formation of L-alanine from pyruvate was quantified via RP-HPLC.

[2] = ω-transaminase enzyme activity assay, forward direction (adipate semialdehyde to 6-aminohexanoate); conditions: cell free extract, 10 mM adipate semialdehyde, 10 mM L-alanine, pH 7.5, 25° C., 4 h, RP-HPLC, against the empty vector control
Procedure: as §1, §2
Enzyme activity in the forward direction (i.e., adipate semialdehyde to 6-aminohexanoate) was confirmed for the transaminases of SEQ ID NO 7, SEQ ID NO 8, SEQ ID NO 9, SEQ ID NO 10 and SEQ ID NO 12. Enzyme activity assays were performed in a buffer composed of a final concentration of 50 mM HEPES buffer (pH=7.5), 10 mM adipate semialdehyde, 10 mM L-alanine and 100 μM pyridoxyl 5′ phosphate. Each enzyme activity assay reaction was initiated by adding a cell free extract of the ω-transaminase gene product or the empty vector control to the assay buffer containing the adipate semialdehyde and incubated at 25° C. for 4 h, with shaking at 250 rpm. The formation of pyruvate was quantified via RP-HPLC.

[3] = carboxylate reductase enzyme activity assay (adipate semialdehyde to hexanedial); conditions: purified enzyme enhanced by the gene product of sfp, 2 mM adipate semialdehyde, pH 7.5, room temperature, 20 min, against the empty vector control
Procedure: The N-terminal His-tagged carboxylate reductase of SEQ ID NO 6 (see Example 2 and FIG. 6) was assayed using adipate semialdehyde as substrate. The enzyme activity assay was performed in triplicate in a buffer composed of a final concentration of 50 mM HEPES buffer (pH=7.5), 2 mM adipate semialdehyde, 10 mM MgCl2, 1 mM ATP and 1 mM NADPH. The enzyme activity assay reaction was initiated by adding purified carboxylate reductase and phosphopantetheine transferase or the empty vector control to the assay buffer containing the adipate semialdehyde and then incubated at room temperature for 20 min. The consumption of NADPH was monitored by absorbance at 340 nm.

Molecule	ω-transaminase activity for converting 6-aminohexanoate to adipate semialdehyde (formation of L-alanine from pyruvate) [1]	ω-transaminase activity for converting adipate semialdehyde to 6-aminohexanoate (formation of pyruvate from L-alanine) [2]	carboxylate reductase activity for converting adipate semialdehyde to hexanedial (consumption of NADPH, absorbance at 340 nm) [3]
SEQ ID NO 6: Segniliparus rotundus carboxylate reductase, Genbank Accession No. ADG98140.1, N-terminal HIS tagged (protein, listed as Segniliparus rotundus, N-terminal His tag) MTQSHTQGPQASAAHSRLARRAAELLATDPQAAATLPDPEVVRQATRPGLRLAERVDAILSGYADRPALGQRSFQTVKDPITGRSSVELLPTFDTITYRELRERATAIASDLAHHPQAPAKPGDFLASIGFISVDYVAIDIAGVFAGLTAVPLQTGATLATLTAITAETAPTLFAASIEHLPTAVDAVLATPSVRRLLVFDYRAGSDEDREAVEAAKRKIADAGSSVLVDVLDEVIARGKSAPKAPLPPATDAGDDSLSLLIYTSGSTGTPKGAMYPERNVAHFWGGVWAAAFDEDAAPPVPAINITFLPLSHVASRLSLMPTLARGGLMHFVAKSDLSTLFEDLKLARPTNLFLVPRVVEMLYQHYQSELDRRGVQDGTREAEAVKDDLRTGLLGGRILTAGFGSAPLSAELAGFIESLLQIHLVDGYGSTEAGPVWRDGYLVKPPVTDYKLIDVPELGYFSTDSPHPRGELAIKTQTILPGYYKRPETTAEVFDEDGFYLTGDVVAQIGPEQFAYVDRRKNVLKLSQGEFVTLAKLEAAYSSSPLVRQLFVYGSSERSYLLAVIVPTPDALKKFGVGEAAKAALGESLQKIARDEGLQSYEVPRDFIIETDPFTVENGLLSDARKSLRPKLKEHYGERLEAMYKELADGQANELRDIRRGVQQRPTLETVRRAAAAMLGASAAEIKPDAHFTDLGGDSLSALTFSNFLHDLFEVDVPVGVIVSAANTLGSVAEHIDAQLAGGRARPTFATVHGKGSTTIKASDLTLDKFIDEQTLEAAKHLPKPADPPRTVLLTGANGWLGRFLALEWLERLAPAGGKLITIVRGKDAAQAKARLDAAYESGDPKLAGHYQDLAATTLEVLAGDFSEPRLGLDEATWNRLADEVDFISHPGALVNHVLPYNQLFGPNVAGVAEIIKLAITTRIKPVTYLSTVAVAAGVEPSALDEDGDIRTVSAERSVDEGYANGYGNSKWGGEVLLREAHDRTGLPVRVFRSDMILAHQKYTGQVNATDQFTRLVQSLLATGLAPKSFYELDAQGNRQRAHYDGIPVDFTAESITTLGGDGLEGYRSYNVFNPHRDGVGLDEFVDWLIEAGHPITRIDDYDQWLSRFETSLRGLPESKRQASVLPLLHAFARPGPAVDGSPFRNTVFRTDVQKAKIGAEHDIPHLGKALVLKYADDIKQLGLL	–	–	accepted adipate semialdehyde as substrate
SEQ ID NO 8: Pseudomonas aeruginosa ω-transaminase, Genbank Accession No. AAG08191.1, N-terminal HIS tagged (protein, listed as Pseudomonas aeruginosa, N-terminal His tag) MNARLHATSPLGDADLVRADQAHYMHGYHVFDDHRVNGSLNIAAGDGAYIYDTAGNRYLDAVGGMWCTNIGLGREEMARTVAEQTRLLAYSNPFCDMANPRAIELCRKLAELAPGDLDHVFLTTGGSTAVDTAIRLMHYYQNCRGKRAKKHVITRINAYHGSTFLGMSLGGKSADRPAEFDFLDERIHHLACPYYYRAPEGLGEAEFLDGLVDEFERKILELGADRVGAFISEPVFGSGGVIVPPAGYHRRMWELCQRYDVLYISDEVVTSFGRLGHFFASQAVFGVQPDIILTAKGLTSGYQPLGACIFSRRIWEVIAEPDKGRCFSHGFTYSGHPVACAAALKNIEIIEREGLLAHADEVGRYFEERLQSLRDLPIVGDVRGMRFMACVEFVADKASKALFPESLNIGEWVHLRAQKRGLLVRPIVHLNVMSPPLILTREQVDTVVRVLRESIEETVEDLVRAGHR	–	accepted adipate semialdehyde as substrate	–
SEQ ID NO 7: Chromobacterium violaceum ω-transaminase, Genbank Accession No. AAQ59697.1, N-terminal HIS tagged (protein, listed as Chromobacterium violaceum, N-terminal His tag) MQKQRTTSQWRELDAAHHLHPFTDTASLNQAGARVMTRGEGVYLWDSEGNKIIDGMAGLWCVNVGYGRKDFAEAARRQMEELPFYNTFFKTTHPAVVELSSLLAEVTPAGFDRVFYTNSGSESVDTMIRMVRRYWDVQGKPEKKTLIGRWNGYHGSTIGGASLGGMKYMHEQGDLPIPGMAHIEQPWWYKHGKDMTPDEFGVVAARWLEEKILEIGADKVAAFVGEPIQGAGGVIVPPATYWPEIERICRKYDVLLVADEVICGFGRTGEWFGHQHFGFQPDLFTAAKGLSSGYLPIGAVFVGKRVAEGLIAGGDFNHGFTYSGHPVCAAVAHANVAALRDEGIVQRVKDDIGPYMQKRWRETFSRFEHVDDVRGVGMVQAFTLVKNKAKRELFPDFGEIGTLCRDIFFRNNLIMRACGDHIVSAPPLVMTRAEVDEMLAVAERCLEEFEQTLKARGLA	accepted 6-aminohexanoate as substrate	accepted adipate semialdehyde as substrate	–

Second part, led by results:

ω-transaminase activity for converting 6-aminohexanoate to adipate semialdehyde (formation of L-alanine from pyruvate) [1]	Molecule	ω-transaminase activity for converting adipate semialdehyde to 6-aminohexanoate (formation of pyruvate from L-alanine) [2]	carboxylate reductase activity for converting adipate semialdehyde to hexanedial (consumption of NADPH, absorbance at 340 nm) [3]
accepted 6-aminohexanoate as substrate	SEQ ID NO 10: Rhodobacter sphaeroides ω-transaminase, Genbank Accession No. ABA81135.1, N-terminal HIS tagged	accepted adipate semialdehyde as substrate	–
accepted 6-aminohexanoate as substrate	SEQ ID NO 9: Pseudomonas syringae ω-transaminase, Genbank Accession No. AAY39893.1, N-terminal HIS tagged (protein, listed as Pseudomonas syringae, N-terminal His tag) MSANNPQTLEWQALSSEHHLAPFSDYKQLKEKGPRIITRAEGVYLWDSEGNKILDGMSGLWCVAIGYGREELADAASKQMRELPYYNLFFQTAHPPVLELAKAISDIAPEGMNHVFFTGSGSEGNDTMLRMVRHYWALKGQPNKKTIISRVNGYHGSTVAGASLGGMTYMHEQGDLPIPGVVHIPQPYWFGEGGDMTPDEFGIWAAEQLEKKILELGVENVGAFIAEPIQGAGGVIVPPDSYWPKIKEILSRYDILFAADEVICGFGRTSEWFGSDFYGLRPDMMTIAKGLTSGYVPMGGLIVRDEIVAVLNEGGDFNHGFTYSGHPVAAAVALENIRILREEKIVERVRSETAPYLQKRLRELSDHPLVGEVRGVGLLGAIELVKDKTTRERYTDKGAGMICRTFCFDNGLIMRAVGDTMIIAPPLVISFAQIDELVEKARTCLDLTLAVLQG	accepted adipate semialdehyde as substrate	–
accepted 6-aminohexanoate as substrate	SEQ ID NO 12: Vibrio fluvialis ω-transaminase, Genbank Accession No. AEA39183.1, N-terminal HIS tagged (protein, listed as Vibrio fluvialis, N-terminal His tag) MNKPQSWEARAETYSLYGFTDMPSLHQRGTVVVTHGEGPYIVDVNGRRYLDANSGLWNMVAGFDHKGLIDAAKAQYERFPGYHAFFGRMSDQTVMLSEKLVEVSPFDSGRVFYTNSGSEANDTMVKMLWFLHAAEGKPQKRKILTRWNAYHGVTAVSASMTGKPYNSVFGLPLPGFVHLTCPHYWRYGEEGETEEQFVARLARELEETIQREGADTIAGFFAEPVMGAGGVIPPAKGYFQAILPILRKYDIPVISDEVICGFGRTGNTWGCVTYDFTPDAIISSKNLTAGFFPMGAVILGPELSKRLETAIEAIEEFPHGFTASGHPVGCAIALKAIDVVMNEGLAENVRRLAPRFEERLKHIAERPNIGEYRGIGFMWALEAVKDKASKTPFDGNLSVSERIANTCTDLGLICRPLGQSVVLCPPFILTEAQMDEMFDKLEKALDKVFAEVA	accepted adipate semialdehyde as substrate	–
